Data published in patent publication US20210388084A1 (JJP BIOLOGICS SP Z O O, published 2021).

Tests used:
[1] = molecular target: T1, membrane-bound full-length human CD89 (human, UniProt P24071 22-287); experiment: FACS, HEK293F-huCD89, 24 h 37C no NaN3, Ab 10 ug/mL then IgA; competitor heat-aggr serum IgA
T1 construct: on stably or transiently transfected HEK293F cells; also called FcalphaRI; huCD89
Experimental: (§1) After extensive washing in PBS/BSA/NaN₃, 1:200 diluted PE-conjugated streptavidin (Jackson ImmunoResearch) was added, and incubated for 30 minutes at 4° C. After extensive washing in PBS/BSA/NaN₃, cells were fixed in 2% formaldehyde in PBS/BSA/NaN₃ for 30 minutes at 4° C.

[2] = molecular target: T1, membrane-bound full-length human CD89; experiment: FACS, HEK293F-huCD89, 24 h 37C no NaN3, IgA then Ab 10 ug/mL; pre-bound heat-aggr serum IgA
Experimental: as §1

[3] = molecular target: T1, membrane-bound full-length human CD89; experiment: FACS, HEK293F-huCD89, 4C +NaN3, IgA then Ab 10 ug/mL; pre-bound non-aggr serum IgA
Experimental: After this (ie, without washing), 50 μL purified mouse anti-human CD89 antibody at 20 μg/mL (in PBS/BSA/NaN₃) was added to these cells, and incubated for another 30 minutes at 4° C. […] After extensive washing in PBS/BSA/NaN₃, 1:200 diluted PE-conjugated streptavidin (Jackson ImmunoResearch) was added, and incubated for 30 minutes at 4° C. After extensive washing in PBS/BSA/NaN₃, cells were fixed in 2% formaldehyde in PBS/BSA/NaN₃ for 30 minutes at 4° C.

[4] = molecular target: T1, membrane-bound full-length human CD89; experiment: FACS, HEK293F-huCD89, 4C +NaN3, IgA then Ab 10 ug/mL; pre-bound heat-aggr serum IgA
Experimental: as §1

[5] = molecular target: T1, membrane-bound full-length human CD89; experiment: FACS, HEK293F-huCD89, 4C +NaN3, Ab 10 ug/mL then IgA; competitor non-aggr serum IgA
Experimental: Then, 10 μL/tube (ie, 0.1×10⁶ cells) of these cells were incubated with or without 50 μL purified mouse anti-human CD89 antibody at 20 μg/mL (in PBS/BSA/NaN₃) for 30 minutes at 4° C. […] After extensive washing in PBS/BSA/NaN₃, 1:200 diluted PE-conjugated streptavidin (Jackson ImmunoResearch) was added, and incubated for 30 minutes at 4° C. After extensive washing in PBS/BSA/NaN₃, cells were fixed in 2% formaldehyde in PBS/BSA/NaN₃ for 30 minutes at 4° C.

[6] = molecular target: T1, membrane-bound full-length human CD89; experiment: FACS, HEK293F-huCD89, 24 h 37C no NaN3, Ab 10 ug/mL then IgA; competitor non-aggr serum IgA
Experimental: as §1

[7] = molecular target: T1, membrane-bound full-length human CD89; experiment: FACS, HEK293F-huCD89, unlabeled Ab 10 ug/mL first; competitor MIP8a-PE
Experimental: Then, 10 μL/tube (ie, 0.1×10⁶ cells) of these cells were incubated with or without 100 μL purified mouse anti-human CD89 antibody at 10 μg/mL (in PBS/BSA/NaN₃) for 30 minutes at 4° C. […] After extensive washing in PBS/BSA/NaN₃, cells were fixed in 2% formaldehyde in PBS/BSA/NaN₃ for 30 minutes at 4° C.

[8] = molecular target: T1, membrane-bound full-length human CD89; experiment: FACS, HEK293F-huCD89, 4C +NaN3, Ab 10 ug/mL then IgA; competitor heat-aggr serum IgA
Experimental: To mimic human IgA immune complexes, human (serum-derived) IgA (Bethyl Laboratories) was heated at 63° C. for 30 minutes, and cooled down to RT followed by centrifugation at 4° C. 12000×g for 2 minutes to remove any insoluble protein precipitation.
Then, 10 μL/tube (ie, 0.1×10⁶ cells) of these cells were incubated with or without 50 μL purified mouse anti-human CD89 antibody at 20 μg/mL (in PBS/BSA/NaN₃) for 30 minutes at 4° C.

[9] = molecular target: T1, membrane-bound full-length human CD89; experiment: FACS, HEK293F-huCD89, 24 h 37C no NaN3, IgA then Ab 10 ug/mL; pre-bound non-aggr serum IgA
Experimental: as §1

B1: mouse anti-human CD89-specific antibody 9H7 (antibody, mouse IgG1, V domains shown)
VH: QIQLVQSGPELKKPGETVKISCKASGYTFKNYGMNWVKQAPGKGLKWMAWINTYTGEPTHTDDFKGRFVFSLETSASTAYLQINNLKNEDTATYFCARWGLGTTEEAARDYWGQGTTLTVSS
VL: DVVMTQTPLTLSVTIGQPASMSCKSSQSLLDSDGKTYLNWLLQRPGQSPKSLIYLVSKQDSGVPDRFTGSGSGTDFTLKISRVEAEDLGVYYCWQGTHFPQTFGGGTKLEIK
0 to 25%: percent IgA binding (remaining) [1] | percent IgA binding (remaining) [2] | percent IgA binding [3] | percent IgA binding [4] | percent IgA binding [5] | percent IgA binding (remaining) [6] | percent IgA binding [8] | percent IgA binding (remaining) [9]
> 90%: % blocking of MIP8a-PE binding [7]
